B1: CLCN6 (parent)
chain: MAGCRGSLCCCCRWCCCCGERETR
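Note: lentivirally expressed fusions sorted by FACS into six bins by GFP to DsRed ratio, PSI derived from sequencing read proportions per bin multiplied by bin number.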

Variants of: B1
Assay: protein stability index of a GFP-peptide fusion (GPS, HEK-293T) (PSI 1-6); higher = more stable
Conditions: c terminus: a fixed tail appended
With MAGCRGSLCCCCRWCACCGERETR the protein stability index was 2.12. MAGCRGSLCCCCRWCDCCGERETR gave a protein stability index of 2.66. Work on MAGCRGSLCCCCRWCECCGERETR yielded a protein stability index of 2.22. For MAGCRGSLCCCCRWCHCCGERETR, the protein stability index was 1.47. For MAGCRGSLCCCCRWCICCGERETR, the protein stability index was 2.23. Work on MAGCRGSLCCCCRWCKCCGERETR yielded a protein stability index of 1.65. MAGCRGSLCCCCRWCLCCGERETR gave a protein stability index of 1.55. With MAGCRGSLCCCCRWCPCCGERETR the protein stability index was 1.33. Work on MAGCRGSLCCCCRWCRCCGERETR yielded a protein stability index of 1.28. In the case of MAGCRGSLCCCCRWCSCCGERETR, the protein stability index is reported as 1. With MAGCRGSLCCCCRWCTCCGERETR the protein stability index was 1.86. Work on MAGCRGSLCCCCRWCVCCGERETR yielded a protein stability index of 2.02. MAGCRGSLCCCCRWCWCCGERETR gave a protein stability index of 2.86. With MAGCRGSLCCCCRWCCACGERETR the protein stability index was 2.48. Work on MAGCRGSLCCCCRWCCDCGERETR yielded a protein stability index of 1.96. Variant MAGCRGSLCCCCRWCCECGERETR has a protein stability index of 1.8. MAGCRGSLCCCCRWCCFCGERETR showed a protein stability index of 2.29. For MAGCRGSLCCCCRWCCICGERETR, the protein stability index was 1.62. MAGCRGSLCCCCRWCCKCGERETR gave a protein stability index of 1.89. For MAGCRGSLCCCCRWCCLCGERETR, the protein stability index was 2.55. Work on MAGCRGSLCCCCRWCCNCGERETR yielded a protein stability index of 1.52. Variant MAGCRGSLCCCCRWCCPCGERETR has a protein stability index of 1.8. MAGCRGSLCCCCRWCCQCGERETR gave a protein stability index of 1.09. In the case of MAGCRGSLCCCCRWCCRCGERETR, the protein stability index is reported as 2.67. MAGCRGSLCCCCRWCCSCGERETR showed a protein stability index of 1.45. In the case of MAGCRGSLCCCCRWCCTCGERETR, the protein stability index is reported as 1.27. MAGCRGSLCCCCRWCCVCGERETR showed a protein stability index of 1.41. For MAGCRGSLCCCCRWCCWCGERETR, the protein stability index was 2.41. MAGCRGSLCCCCRWCCYCGERETR showed a protein stability index of 1.97. Variant MAGCRGSLCCCCRWCCCAGERETR has a protein stability index of 1.26. MAGCRGSLCCCCRWCCCDGERETR gave a protein stability index of 2.77. With MAGCRGSLCCCCRWCCCGGERETR the protein stability index was 1.79. Variant MAGCRGSLCCCCRWCCCHGERETR has a protein stability index of 2.06. For MAGCRGSLCCCCRWCCCKGERETR, the protein stability index was 1.85. With MAGCRGSLCCCCRWCCCLGERETR the protein stability index was 2.49. MAGCRGSLCCCCRWCCCMGERETR gave a protein stability index of 1.42. MAGCRGSLCCCCRWCCCNGERETR showed a protein stability index of 1.49. MAGCRGSLCCCCRWCCCPGERETR gave a protein stability index of 1.8. In the case of MAGCRGSLCCCCRWCCCQGERETR, the protein stability index is reported as 2.58. MAGCRGSLCCCCRWCCCSGERETR gave a protein stability index of 2.47. In the case of MAGCRGSLCCCCRWCCCTGERETR, the protein stability index is reported as 1.86. MAGCRGSLCCCCRWCCCVGERETR gave a protein stability index of 1.3. Work on MAGCRGSLCCCCRWCCCWGERETR yielded a protein stability index of 3.21. MAGCRGSLCCCCRWCCCYGERETR showed a protein stability index of 1.84. MAGCRGSLCCCCRWCCCCAERETR showed a protein stability index of 1.49. With MAGCRGSLCCCCRWCCCCCERETR the protein stability index was 1.83. In the case of MAGCRGSLCCCCRWCCCCDERETR, the protein stability index is reported as 2.22. MAGCRGSLCCCCRWCCCCEERETR gave a protein stability index of 1.86. In the case of MAGCRGSLCCCCRWCCCCFERETR, the protein stability index is reported as 2.53. For MAGCRGSLCCCCRWCCCCHERETR, the protein stability index was 1.15. For MAGCRGSLCCCCRWCCCCIERETR, the protein stability index was 1.45. With MAGCRGSLCCCCRWCCCCKERETR the protein stability index was 1.8. In the case of MAGCRGSLCCCCRWCCCCMERETR, the protein stability index is reported as 2.34. MAGCRGSLCCCCRWCCCCNERETR showed a protein stability index of 1.44. Work on MAGCRGSLCCCCRWCCCCPERETR yielded a protein stability index of 2.17. Variant MAGCRGSLCCCCRWCCCCQERETR has a protein stability index of 1.29. Work on MAGCRGSLCCCCRWCCCCTERETR yielded a protein stability index of 2.02. Work on MAGCRGSLCCCCRWCCCCWERETR yielded a protein stability index of 1.66. With MAGCRGSLCCCCRWCCCCYERETR the protein stability index was 2.41. In the case of MAGCRGSLCCCCRWCCCCGARETR, the protein stability index is reported as 1.96. In the case of MAGCRGSLCCCCRWCCCCGCRETR, the protein stability index is reported as 2.16. In the case of MAGCRGSLCCCCRWCCCCGDRETR, the protein stability index is reported as 2.27. With MAGCRGSLCCCCRWCCCCGFRETR the protein stability index was 1.55. For MAGCRGSLCCCCRWCCCCGGRETR, the protein stability index was 2.24. For MAGCRGSLCCCCRWCCCCGHRETR, the protein stability index was 1.56. In the case of MAGCRGSLCCCCRWCCCCGIRETR, the protein stability index is reported as 1.55. With MAGCRGSLCCCCRWCCCCGKRETR the protein stability index was 2.22. MAGCRGSLCCCCRWCCCCGLRETR gave a protein stability index of 2.06. MAGCRGSLCCCCRWCCCCGNRETR gave a protein stability index of 2.36. In the case of MAGCRGSLCCCCRWCCCCGQRETR, the protein stability index is reported as 1.55. Work on MAGCRGSLCCCCRWCCCCGRRETR yielded a protein stability index of 2.33. Work on MAGCRGSLCCCCRWCCCCGSRETR yielded a protein stability index of 2.25. MAGCRGSLCCCCRWCCCCGTRETR gave a protein stability index of 1.01. Variant MAGCRGSLCCCCRWCCCCGVRETR has a protein stability index of 1.93. Work on MAGCRGSLCCCCRWCCCCGWRETR yielded a protein stability index of 1.11. In the case of MAGCRGSLCCCCRWCCCCGYRETR, the protein stability index is reported as 1.89. MAGCRGSLCCCCRWCCCCGEAETR gave a protein stability index of 2.37. MAGCRGSLCCCCRWCCCCGECETR gave a protein stability index of 2.56. In the case of MAGCRGSLCCCCRWCCCCGEDETR, the protein stability index is reported as 2.82. Variant MAGCRGSLCCCCRWCCCCGEEETR has a protein stability index of 2.27. In the case of MAGCRGSLCCCCRWCCCCGEFETR, the protein stability index is reported as 1.06. Work on MAGCRGSLCCCCRWCCCCGEIETR yielded a protein stability index of 1.5. For MAGCRGSLCCCCRWCCCCGEKETR, the protein stability index was 1.79. With MAGCRGSLCCCCRWCCCCGELETR the protein stability index was 1.76. Work on MAGCRGSLCCCCRWCCCCGEMETR yielded a protein stability index of 1.08. MAGCRGSLCCCCRWCCCCGENETR gave a protein stability index of 1.87. Variant MAGCRGSLCCCCRWCCCCGEQETR has a protein stability index of 1.39. With MAGCRGSLCCCCRWCCCCGESETR the protein stability index was 2.18. Work on MAGCRGSLCCCCRWCCCCGETETR yielded a protein stability index of 2.77. In the case of MAGCRGSLCCCCRWCCCCGEVETR, the protein stability index is reported as 1.66. With MAGCRGSLCCCCRWCCCCGEWETR the protein stability index was 1.52. In the case of MAGCRGSLCCCCRWCCCCGEYETR, the protein stability index is reported as 2.8. Variant MAGCRGSLCCCCRWCCCCGERCTR has a protein stability index of 1.89. MAGCRGSLCCCCRWCCCCGERDTR gave a protein stability index of 1.92.

From the supplement of paper PMC10567573
